Data on 18 sequences can be found in the supplement of paper PMC12764529.

A short description of data set [1]: folding stability dG unfold from trypsin proteolysis; higher = more stable. In outline:
(§1)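 Mini-proteins designed to be under 80 residues and free of cysteine were carried in a PA-tagged cDNA display construct and digested with trypsin and with chymotrypsin. Each protease was applied at 11 threefold-diluted concentrations, alongside a no-protease condition, before sequencing. K50 came from Bayesian fitting of the sequencing counts, and unfolding free energy was obtained by comparing it with a sequence-predicted unfolded-state K50 and a shared folded-state K50, for each protease separately or for both together. Designs were retained only if their AlphaFold2 dimer inter-PAE exceeded 15.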

Data set [2] can be described thus: folding stability dG unfold from chymotrypsin proteolysis; higher = more stable. In outline:
as §1

The nature of data set [3]: folding stability dG unfold (combined trypsin and chymotrypsin); higher = more stable. In outline: as §1

± gives the half width of the 95% confidence interval.

“SAGGSDYYIRVRIRIYKPTPEDMQEGKPIPEVEIWFPFDSVEEIKEFLENLPPNIKVDVDWFPPEDSAGGSA [r2_25_TrROS]”: the results for the “folding stability dG unfold” value in data set [1], in data set [2] and in data set [3] were 3.35 ± 0.073 kcal/mol, 4.21 ± 0.11 kcal/mol and 3.89 ± 0.14 kcal/mol, respectively.
Taken in the same sequence, the figures for “SAGGSEAIKEALELAKENPGKTVEVEIKNEDGSIYKIKIEVKEGKVVKVEVEKVKKEEVLSEEEKKSAGGSA [r2_263_TrROS_Hall]” were 1.01 ± 0.1 kcal/mol, 2.49 ± 0.043 kcal/mol and 2.12 ± 0.1 kcal/mol.
In the case of “SAGGSEALTKNLPGVKEIKIEVEPTEVALSPELAKLLPNLPGVKFTVPSVKIDIKIEYPGTPDGTLSAGGSA [r2_404_TrMRF]”, the “folding stability dG unfold” value in data set [1] was 0.133 ± 0.088 kcal/mol; in data set [2], -0.659 ± 0.37 kcal/mol; in data set [3], -0.053 ± 0.15 kcal/mol.
Taken in the same sequence, the figures for “SAGGSEDRYLVHVLVRFPDELRELYLEARSPEEVERSVRRAIEELYPERLEDVEVVVFARPVSEPLSAGGSA [r2_111_TrMRF]” were 2.38 ± 0.038 kcal/mol, 1.91 ± 0.081 kcal/mol and 2.14 ± 0.061 kcal/mol.
Take “SAGGSEEEIKKKIEEIAKKRGTKIKSITIKKLPDGSLLATVTLEDNPNTTIEFKVEKNKVEITKINKSAGGS [r8_432_JUSTAS]”: the “folding stability dG unfold” value was 1.73 ± 0.068 kcal/mol in data set [1], 2.93 ± 0.051 kcal/mol in data set [2] and 2.61 ± 0.066 kcal/mol in data set [3].
In the case of “SAGGSEEKVFEFEVVEVTSVEVKEDGTVTIEVTVRLENGLLLTVRVTFDLATNEVTIEVELRPLPESAGGSA [r2_321_TrROS_Hall]”, the results for the “folding stability dG unfold” value in data set [1], in data set [2] and in data set [3] were 3.38 ± 0.35 kcal/mol, 4.49 ± 0.19 kcal/mol and 4.41 ± 0.2 kcal/mol, respectively.
For “SAGGSEEVEEEPPVVVTVRLTIELTLADGSKVRVEVELVRTADGRLLLKIRVVNEDTGEVYEFTFPSAGGSA [r2_484_TrROS_Hall]”, the “folding stability dG unfold” value in data set [1] is 3.31 ± 0.24 kcal/mol; in data set [2] it was 4.86 ± 0.23 kcal/mol; in data set [3] it was 4.6 ± 0.19 kcal/mol.
In the case of “SAGGSEFIPVVAEFPEDVTPEDVARAVRELERAGFVVERVEVERFPDPDGRERYRVRVVLRRPEELSAGGSA [r2_442_TrMRF]”, the “folding stability dG unfold” value was found to be 3.53 ± 0.081 kcal/mol in data set [1], 3.841 ± 0.0097 kcal/mol in data set [2] and 3.732 ± 0.035 kcal/mol in data set [3].
Regarding “SAGGSEKIEVEVERREDGYLVLRVRLELFDENGELVEEIEIEVVLPREELEKMSLEELLKRLLEELSAGGSA [r2_421_TrROS_Hall]”, the “folding stability dG unfold” value in data set [1] stood at 3.99 ± 0.17 kcal/mol; in data set [2], 5.25 ± 0.38 kcal/mol; in data set [3], 5.08 ± 0.67 kcal/mol.
With “SAGGSEKVKIEIPFRHPEDGEPIFPVRIEYEKPPNGDYKLDIEIDNFPPGMKPSPAAKDAIEEFIKSAGGSA [r2_7_TrROS]”, the “folding stability dG unfold” value in data set [1] came out at 0.588 ± 0.07 kcal/mol; in data set [2], 1.29 ± 0.052 kcal/mol; in data set [3] it was 0.956 ± 0.19 kcal/mol.
The like results for “SAGGSEKVTIELEFRNPETGELIATVKIELERLPNGEIKAKIEFTNLPEGVELSEEMKKLLEELLKSAGGSA [r2_7_TrROS_Hall]” were, in that order, 2.5 ± 0.31 kcal/mol, 2.93 ± 0.19 kcal/mol and 2.77 ± 0.34 kcal/mol.
Regarding “SAGGSELKPGDLVEVKVTVEFDEETGKATVEVEFNGKKLTVEVELEENQPPTVEVTLLVRIDKIEPSAGGSA [r2_113_TrROS_Hall]”, the “folding stability dG unfold” value in data set [1] is 2.36 ± 0.17 kcal/mol; in data set [2] it was 2.48 ± 0.1 kcal/mol; in data set [3], 2.46 ± 0.15 kcal/mol.
Regarding “SAGGSEPPKIKKIKDINVKHERHNDRPYWEVKIRIKLKNGNTAEIDIEMPGMPPEEAREQIKDILKSAGGSA [r2_26_TrROS]”, the “folding stability dG unfold” value in data set [1] came to 0.391 ± 0.15 kcal/mol; in data set [2], 0.872 ± 0.089 kcal/mol; in data set [3], 0.938 ± 0.36 kcal/mol.
Take “SAGGSERTIMIPVEPGMSPEQIADEIKAILRELGPGRPIEIDDVHPGGWVKIKINNKPIKIHIMWPSAGGSA [r2_102_TrROS]”: the “folding stability dG unfold” value is 1.31 ± 0.038 kcal/mol in data set [1], 1.3 ± 0.081 kcal/mol in data set [2] and 1.32 ± 0.1 kcal/mol in data set [3].
The like results for “SAGGSETVEIELGSEDGTVYKIEIERFPETGLLLIKVDGPDPKVIEKVVKELGVDVVEVLEDGYVLLASAGG [r13_937_TrMRF]” were, in that order, 1.45 ± 0.059 kcal/mol, 1.89 ± 0.05 kcal/mol and 1.78 ± 0.065 kcal/mol.
The like results for “SAGGSEVVLEAEGVDPATGKPYTVRVVYDKETGVPVVEVRDADGTLLAVIPVPPDKALEALKELGVSAGGSA [r2_115_TrMRF]” were, in that order, 2.92 ± 0.08 kcal/mol, 3.046 ± 0.013 kcal/mol and 2.99 ± 0.067 kcal/mol.
For the sequence “SAGGSFDPVEITTLEDGTIKILAKDPNTNKLFITTLKAKSIKTSSLGNGKTITTIPHEKVEESEELPSAGGS [r16_615_JUSTAS]”, the “folding stability dG unfold” value was -0.795 ± 0.66 kcal/mol in data set [1], -0.0729 ± 0.51 kcal/mol in data set [2] and -0.554 ± 0.67 kcal/mol in data set [3].
Take “SAGGSFEFKAEVFYDKEKDIYYVKIPYILKNTGKIIPIVKKVKAGDPIPVEKLAEKIAKELEELGISAGGSA [r2_221_TrMRF]”: the results for the “folding stability dG unfold” value in data set [1], in data set [2] and in data set [3] were 0.357 ± 0.079 kcal/mol, 1.89 ± 0.066 kcal/mol and 1.36 ± 0.1 kcal/mol, respectively.
